Among the data in US5990094A, “Inhibitors of sorotonin N-acetyltransferase” (The Rockefeller University, priority 1998, dated 1999) are Km values, retold here.

What is called Km is the concentration of substrate that gives half-maximal velocity.

Common to all, as to assay: purified protein, by the assay type
Substrate in data set [1]: NCCc1c[nH]c2ccc(O)cc12
Substrate in data set [2]: CC(=O)SCCNC(=O)CCNC(=O)[C@H](O)C(C)(C)COP(=O)(O)OP(=O)(O)OC[C@H]1O[C@@H](n2cnc3c(N)ncnc32)[C@H](O)[C@@H]1OP(=O)(O)O
Substrate in data set [3]: NCCc1c[nH]c2ccccc12
Substrate in data set [4]: CC(N)Cc1c[nH]c2ccccc12
The note with it: other: Table 1, tryptamine analogs.

Substrate in data set [5]: CNCCc1c[nH]c2ccccc12
As to conditions: other: Table 1, tryptamine analogs.

Setting [6] is: other: 1 mM (near saturating) concentration of the fixed substrate, GST-AANAT.
The mark [7] stands for this setting: other: ionic strength I~0.1, GST-AANAT.
The mark [8] stands for this setting: other: Table 1, tryptamine analogs.

B1: GST-AANAT fusion (Ovis aries) (protein)
chain: MSTPSVHCLKPSPLHLPSGIPGSPGRQRRHTLPANEFRCLTPEDAAGVFEIEREAFISVSGNCPLNLDEVQHFLTLCPELSLGWFVEGRLVAFIIGSLWDEERLTQESLALHRPRGHSAHLHALAVHRSFRQQGKGSVLLWRYLHHVGAQPAVRRAVLMCEDALVPFYQRFGFHPAGPCAIVVGSLTFTEMHCSLRGHAALRRNSDR
As for B1, the Km in data set [1] (setting [6]) was 241 µM; in data set [2] (setting [6]), 289 µM; in data set [2] (setting [7]), 100 µM; in data set [3] (setting [7]), 100 µM.

B2: AANAT (Ovis aries) (protein)
chain: B1 chain
Consider B2, for which the Km was 240 µM in data set [1] (setting [8]), 170 µM in data set [3] (setting [8]), 2700 µM in data set [4] and 3800 µM in data set [5].

B3: unmodified AANAT (Ovis aries) (protein)
chain: B1 chain
For B3, in data set [2] (other: 1 mM (near saturating) concentration of the fixed substrate, AANAT), the Km stood at 178 µM.
